# Target: T1, human CD40 expressed on CHO cells (human, UniProt P25942 21-277)
# T1 construct: whole, on cells; also used for the reporter cells over-expressing human CD40; also called cellular CD40; CHO-CD40 cells
# Assay: FACS, CHO cells
# T1 sequence (P25942 21-277): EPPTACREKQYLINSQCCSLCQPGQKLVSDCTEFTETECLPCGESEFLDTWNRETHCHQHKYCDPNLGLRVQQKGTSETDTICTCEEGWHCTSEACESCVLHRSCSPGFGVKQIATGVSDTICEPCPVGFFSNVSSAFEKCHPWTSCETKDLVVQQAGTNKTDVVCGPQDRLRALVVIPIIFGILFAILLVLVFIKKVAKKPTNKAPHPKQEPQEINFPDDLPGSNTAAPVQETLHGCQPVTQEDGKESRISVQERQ
row,Binder,binding result
1,"Ly403 (bispecific antibody, human IgG1, kappa, Ly311 HC (IgG1 mutated Fc) + Ly311 LC-TM740 scFv VL-VH) heavy: EVQLVESGGGVVQPGRSLRLSCSASGFDFTTYWMSWVRQAPGKGLEWIGEIHPDSSTINYAPSLKDRFTISRDNAKNTLFLQMDSLRPEDTGVYFCASLYFGFPWFAYWGQGTPVTVSSASTKGPSVFPLAPSSKSTSGGTAALGCLVKDYFPEPVTVSWNSGALTSGVHTFPAVLQSSGLYSLSSVVTVPSSSLGTQTYICNVNHKPSNTKVDKKVEPKSCDKTHTCPPCPAPELLGPSVFLFPPKPKDTLMISRTPEVTCVVVDVSHEDPEVKFNWYVDGVEVHNAKTKPREEQYNSTYRVVSVLTVLHQDWLNGKEYKCKVSNKALPAPIEKTISKAKGQPREPQVYTLPPSREEMTKNQVSLTCLVKGFYPSDIAVEWESNGQPENNYKTTPPVLDSDGSFFLYSKLTVDKSRWQQGNVFSCSVMHEALHNHYTQKSLSLSPGK light: DIQLTQSPSSLSASVGDRVTITCKASQDVGTSVAWYQQKPGKAPKLLIYWTSTRHTGVPSRFSGSGSGTDFTFTISSLQPEDIATYYCQQYSLYRSFGQGTKVEIKRTVAAPSVFIFPPSDEQLKSGTASVVCLLNNFYPREAKVQWKVDNALQSGNSQESVTEQDSKDSTYSLSSTLTLSKADYEKHKVYACEVTHQGLSSPVTKSFNRGECGGGGSGGGGSGGGGSGGGGSDIQMTQSPSSLSASVGDRVTITCKASQNIYIYLNWYQQKPGKAPKLLIYNTNNLQTGVPSRFSGSGSGTDFTLTISSLQPEDFATYYCLQHSSRRTFGGGTKVEIKGGGGSGGGGSGGGGSGGGGSQVQLVESGGGLVQPGGSLKLSCATSGFNFNDYFMNWVRQASGKGLEWVGQIRNKNYNYATYYTESLEGRVTISRDDSKNTAYLQMNSLKTEDTAVYYCTSYYYDGFADYFDYWGQGTTVTVSS",binds
2,"Ly404 (bispecific antibody, human IgG1, kappa, Ly311 HC (IgG1 mutated Fc) + Ly311 LC-TM740 scFv VH-VL) heavy: EVQLVESGGGVVQPGRSLRLSCSASGFDFTTYWMSWVRQAPGKGLEWIGEIHPDSSTINYAPSLKDRFTISRDNAKNTLFLQMDSLRPEDTGVYFCASLYFGFPWFAYWGQGTPVTVSSASTKGPSVFPLAPSSKSTSGGTAALGCLVKDYFPEPVTVSWNSGALTSGVHTFPAVLQSSGLYSLSSVVTVPSSSLGTQTYICNVNHKPSNTKVDKKVEPKSCDKTHTCPPCPAPELLGPSVFLFPPKPKDTLMISRTPEVTCVVVDVSHEDPEVKFNWYVDGVEVHNAKTKPREEQYNSTYRVVSVLTVLHQDWLNGKEYKCKVSNKALPAPIEKTISKAKGQPREPQVYTLPPSREEMTKNQVSLTCLVKGFYPSDIAVEWESNGQPENNYKTTPPVLDSDGSFFLYSKLTVDKSRWQQGNVFSCSVMHEALHNHYTQKSLSLSPGK light: DIQLTQSPSSLSASVGDRVTITCKASQDVGTSVAWYQQKPGKAPKLLIYWTSTRHTGVPSRFSGSGSGTDFTFTISSLQPEDIATYYCQQYSLYRSFGQGTKVEIKRTVAAPSVFIFPPSDEQLKSGTASVVCLLNNFYPREAKVQWKVDNALQSGNSQESVTEQDSKDSTYSLSSTLTLSKADYEKHKVYACEVTHQGLSSPVTKSFNRGECGGGGSGGGGSGGGGSGGGGSQVQLVESGGGLVQPGGSLKLSCATSGFNFNDYFMNWVRQASGKGLEWVGQIRNKNYNYATYYTESLEGRVTISRDDSKNTAYLQMNSLKTEDTAVYYCTSYYYDGFADYFDYWGQGTTVTVSSGGGGSGGGGSGGGGSGGGGSDIQMTQSPSSLSASVGDRVTITCKASQNIYIYLNWYQQKPGKAPKLLIYNTNNLQTGVPSRFSGSGSGTDFTLTISSLQPEDFATYYCLQHSSRRTFGGGTKVEIK",binds
3,"Ly401 (bispecific antibody, human IgG1, kappa, Ly311 HC (IgG1 mutated Fc)-TM740 scFv VL-VH + Ly311 LC) heavy: EVQLVESGGGVVQPGRSLRLSCSASGFDFTTYWMSWVRQAPGKGLEWIGEIHPDSSTINYAPSLKDRFTISRDNAKNTLFLQMDSLRPEDTGVYFCASLYFGFPWFAYWGQGTPVTVSSASTKGPSVFPLAPSSKSTSGGTAALGCLVKDYFPEPVTVSWNSGALTSGVHTFPAVLQSSGLYSLSSVVTVPSSSLGTQTYICNVNHKPSNTKVDKKVEPKSCDKTHTCPPCPAPELLGPSVFLFPPKPKDTLMISRTPEVTCVVVDVSHEDPEVKFNWYVDGVEVHNAKTKPREEQYNSTYRVVSVLTVLHQDWLNGKEYKCKVSNKALPAPIEKTISKAKGQPREPQVYTLPPSREEMTKNQVSLTCLVKGFYPSDIAVEWESNGQPENNYKTTPPVLDSDGSFFLYSKLTVDKSRWQQGNVFSCSVMHEALHNHYTQKSLSLSPGGGGGSGGGGSGGGGSGGGGSDIQMTQSPSSLSASVGDRVTITCKASQNIYIYLNWYQQKPGKAPKLLIYNTNNLQTGVPSRFSGSGSGTDFTLTISSLQPEDFATYYCLQHSSRRTFGGGTKVEIKGGGGSGGGGSGGGGSGGGGSQVQLVESGGGLVQPGGSLKLSCATSGFNFNDYFMNWVRQASGKGLEWVGQIRNKNYNYATYYTESLEGRVTISRDDSKNTAYLQMNSLKTEDTAVYYCTSYYYDGFADYFDYWGQGTTVTVSS light: DIQLTQSPSSLSASVGDRVTITCKASQDVGTSVAWYQQKPGKAPKLLIYWTSTRHTGVPSRFSGSGSGTDFTFTISSLQPEDIATYYCQQYSLYRSFGQGTKVEIKRTVAAPSVFIFPPSDEQLKSGTASVVCLLNNFYPREAKVQWKVDNALQSGNSQESVTEQDSKDSTYSLSSTLTLSKADYEKHKVYACEVTHQGLSSPVTKSFNRGEC",binds

# Results, then the binder that gave them:
row,binding result,Binder
1,binds,"Ly402 (bispecific antibody, human IgG1, kappa, Ly311 HC (IgG1 mutated Fc)-TM740 scFv VH-VL + Ly311 LC) heavy: EVQLVESGGGVVQPGRSLRLSCSASGFDFTTYWMSWVRQAPGKGLEWIGEIHPDSSTINYAPSLKDRFTISRDNAKNTLFLQMDSLRPEDTGVYFCASLYFGFPWFAYWGQGTPVTVSSASTKGPSVFPLAPSSKSTSGGTAALGCLVKDYFPEPVTVSWNSGALTSGVHTFPAVLQSSGLYSLSSVVTVPSSSLGTQTYICNVNHKPSNTKVDKKVEPKSCDKTHTCPPCPAPELLGPSVFLFPPKPKDTLMISRTPEVTCVVVDVSHEDPEVKFNWYVDGVEVHNAKTKPREEQYNSTYRVVSVLTVLHQDWLNGKEYKCKVSNKALPAPIEKTISKAKGQPREPQVYTLPPSREEMTKNQVSLTCLVKGFYPSDIAVEWESNGQPENNYKTTPPVLDSDGSFFLYSKLTVDKSRWQQGNVFSCSVMHEALHNHYTQKSLSLSPGGGGGSGGGGSGGGGSGGGGSQVQLVESGGGLVQPGGSLKLSCATSGFNFNDYFMNWVRQASGKGLEWVGQIRNKNYNYATYYTESLEGRVTISRDDSKNTAYLQMNSLKTEDTAVYYCTSYYYDGFADYFDYWGQGTTVTVSSGGGGSGGGGSGGGGSGGGGSDIQMTQSPSSLSASVGDRVTITCKASQNIYIYLNWYQQKPGKAPKLLIYNTNNLQTGVPSRFSGSGSGTDFTLTISSLQPEDFATYYCLQHSSRRTFGGGTKVEIK light: DIQLTQSPSSLSASVGDRVTITCKASQDVGTSVAWYQQKPGKAPKLLIYWTSTRHTGVPSRFSGSGSGTDFTFTISSLQPEDIATYYCQQYSLYRSFGQGTKVEIKRTVAAPSVFIFPPSDEQLKSGTASVVCLLNNFYPREAKVQWKVDNALQSGNSQESVTEQDSKDSTYSLSSTLTLSKADYEKHKVYACEVTHQGLSSPVTKSFNRGEC"
2,binds,"Ly405 (bispecific antibody, human IgG1, kappa, Ly312 HC (IgG1 mutated Fc)-TM740 scFv VL-VH + Ly312 LC) heavy: EVQLVESGGGLVQPGGSLRLSCAASGFNIKDTYMHWVRQAPGKGLEWVARIDPANGNSKYADSVKGRFTISADTSKNTAYLQMNSLRAEDTAVYYCAPFGYYVSDYAMAYWGQGTLVTVSSASTKGPSVFPLAPSSKSTSGGTAALGCLVKDYFPEPVTVSWNSGALTSGVHTFPAVLQSSGLYSLSSVVTVPSSSLGTQTYICNVNHKPSNTKVDKKVEPKSCDKTHTCPPCPAPELLGPSVFLFPPKPKDTLMISRTPEVTCVVVDVSHEDPEVKFNWYVDGVEVHNAKTKPREEQYNSTYRVVSVLTVLHQDWLNGKEYKCKVSNKALPAPIEKTISKAKGQPREPQVYTLPPSREEMTKNQVSLTCLVKGFYPSDIAVEWESNGQPENNYKTTPPVLDSDGSFFLYSKLTVDKSRWQQGNVFSCSVMHEALHNHYTQKSLSLSPGGGGGSGGGGSGGGGSGGGGSDIQMTQSPSSLSASVGDRVTITCKASQNIYIYLNWYQQKPGKAPKLLIYNTNNLQTGVPSRFSGSGSGTDFTLTISSLQPEDFATYYCLQHSSRRTFGGGTKVEIKGGGGSGGGGSGGGGSGGGGSQVQLVESGGGLVQPGGSLKLSCATSGFNFNDYFMNWVRQASGKGLEWVGQIRNKNYNYATYYTESLEGRVTISRDDSKNTAYLQMNSLKTEDTAVYYCTSYYYDGFADYFDYWGQGTTVTVSS light: DIQLTQSPSSLSASVGDRVTITCRAGESVDIFGVGFLHWYQQKPGKAPKLLIYRASNLESGVPSRFSGSGSRTDFTLTISSLQPEDFATYYCQQTNEDPYTFGQGTKVEIKRTVAAPSVFIFPPSDEQLKSGTASVVCLLNNFYPREAKVQWKVDNALQSGNSQESVTEQDSKDSTYSLSSTLTLSKADYEKHKVYACEVTHQGLSSPVTKSFNRGEC"
3,binds,"Ly406 (bispecific antibody, human IgG1, kappa, Ly312 HC (IgG1 mutated Fc)-TM740 scFv VH-VL + Ly312 LC) heavy: EVQLVESGGGLVQPGGSLRLSCAASGFNIKDTYMHWVRQAPGKGLEWVARIDPANGNSKYADSVKGRFTISADTSKNTAYLQMNSLRAEDTAVYYCAPFGYYVSDYAMAYWGQGTLVTVSSASTKGPSVFPLAPSSKSTSGGTAALGCLVKDYFPEPVTVSWNSGALTSGVHTFPAVLQSSGLYSLSSVVTVPSSSLGTQTYICNVNHKPSNTKVDKKVEPKSCDKTHTCPPCPAPELLGPSVFLFPPKPKDTLMISRTPEVTCVVVDVSHEDPEVKFNWYVDGVEVHNAKTKPREEQYNSTYRVVSVLTVLHQDWLNGKEYKCKVSNKALPAPIEKTISKAKGQPREPQVYTLPPSREEMTKNQVSLTCLVKGFYPSDIAVEWESNGQPENNYKTTPPVLDSDGSFFLYSKLTVDKSRWQQGNVFSCSVMHEALHNHYTQKSLSLSPGGGGGSGGGGSGGGGSGGGGSQVQLVESGGGLVQPGGSLKLSCATSGFNFNDYFMNWVRQASGKGLEWVGQIRNKNYNYATYYTESLEGRVTISRDDSKNTAYLQMNSLKTEDTAVYYCTSYYYDGFADYFDYWGQGTTVTVSSGGGGSGGGGSGGGGSGGGGSDIQMTQSPSSLSASVGDRVTITCKASQNIYIYLNWYQQKPGKAPKLLIYNTNNLQTGVPSRFSGSGSGTDFTLTISSLQPEDFATYYCLQHSSRRTFGGGTKVEIK light: DIQLTQSPSSLSASVGDRVTITCRAGESVDIFGVGFLHWYQQKPGKAPKLLIYRASNLESGVPSRFSGSGSRTDFTLTISSLQPEDFATYYCQQTNEDPYTFGQGTKVEIKRTVAAPSVFIFPPSDEQLKSGTASVVCLLNNFYPREAKVQWKVDNALQSGNSQESVTEQDSKDSTYSLSSTLTLSKADYEKHKVYACEVTHQGLSSPVTKSFNRGEC"

# Reference: patent publication US20220372155A1 (LYVGEN BIOPHARMA, published 2022)
